Among the data in paper PMC5965902 are pKa values, retold here.

The target of this data set is Cys128 (UniProt position 128, FIDQHCSLMKV). Put plainly: chemical modification (DTNB/Ellman labelling kinetics followed by UV-vis). Conditions: room temperature; 150 mM NaCl; 50 mM citric acid, 50 mM HEPES, 50 mM Bicine, pH adjusted with NaOH or HCl; Free (reduced) thiol form of RitR, 5 μM protein with 20 μM DTNB, no DNA. In general terms: In Ellman's method for cholinesterases, released thiocholine reacts with DTNB.

For “RitR (Repressor of iron transport Regulator), orphan two-component-like response regulator (Streptococcus pneumoniae (strain R800, R6/D39 derivative))”, the pKa was found to be 6.85.

The pKa is the negative logarithm of the acid dissociation constant.
